Test results: the nanobody polyreactivity screen of Harvey et al. (2022)

Assay: yeast display, Sf9 membrane polyspecificity reagent, FACS + sequencing; frameworks hold sequencing errors
Method in brief: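 In a synthetic yeast display library (Saccharomyces cerevisiae BJ5465), nanobody expression was induced with galactose for 36–48 hours. FACS gates were set low and high (top ~1%) using anti-HA fluorescence for expression and streptavidin fluorescence for binding of the Sf9 membrane reagent. Each polyreactivity label is drawn from the gate of origin.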

Row | Sequence | polyreactivity (PSR sort gate)
1 | QVQLVESVGGLVQAGGSLRLSCAASGGIFWVYAMGWYRQAPGKERELVADISIADSTNYADSVKGRFTISRDNAKNTVYLQMNSLKPEDTAVYYCNAVPSQHDEFDYWGQGTQVTVSS | low polyreactivity
2 | QVQLVQSGGGLVQAGGTLRLTCAASGSTYAVYAMGWYRQAPGKERELVATIRGRGGSTYYADSVKGRFTISRDYAKNTVYLQMNSLKPEDTAVYYCAADSYPSLGKYDSWGQGTQVTVSS | high polyreactivity
3 | QGQLVESGGGLVQAGGSLRLSCAASGRIFVIYAMGWYRQAPGKERELVAAISSRGGTTYYADSVKGRFTISRDNAKNTVYLQMNSLKPEDTAGYYCNVARFYHIYDYWGQGTHVTVSS | high polyreactivity
4 | QVQLVESGGGLVQAGGSLRLSCAASGSTFAVYAMGWYRQEPGKERELVAVISRGANTNYADSVKGRFTISRDNAKNTVYLQMNSLIPEDTAVYYCAAPSFFTHRGRFDYWGQGTQVTVSS | low polyreactivity
5 | QVQLVESGGGLVQAGGSLRLSCAASGRTFKYYAMGWYRQAPGKERELVATINYSGGGTYYADSVKRRFTSSRDNAKNTVYLQMNSLKPEDTAVYYCAATRYSFGPRRVDYWGQGTQVTVSS | high polyreactivity
6 | QVQLVESGGGLVQAGGSLRFSCAASGRIFTPYAMGWYRQAPGKERELVAVIRDGSTYYADSVKGRFTISRDNAKNTVYLQMNSLKPEDTAVYYCRYDIWVWWSGAYDYWGQGTQVTVSS | low polyreactivity
7 | QVQLVESGGGLVQAGGSLRLSCAASGSIFVHNAMGWYRQAPGKERELVAAITWSGGSTYYADSVKGRFTISRDNAKNTVYLQMNSLKPEDTAVYYCNATYSVRYYLEFLNEPEMDYWGQGTQVTVSS | low polyreactivity
8 | QVQLVESGGGLVQAGGSLRLSCAASGSIFFYNAMAWYRQAPGKERELVAAINYNGGRTYYADSVKGRFTISRDNAKNTVYLQMNSMKQEDTAVYYCAARYGSGGDYWGQGTQVTVSS | low polyreactivity
9 | QVQLVESGGGLVQAGGSLRLRCAASGRTFSHYAMGWYRQAAGKESELVATITRNGGITYYADSVKGRFTISRDNAKNTVYLQMNSLKPEDTAVYYCNKRWGGPIQFDYWGQGTQVTVSS | low polyreactivity
10 | QVQLVESGGGLVQAGGSLRLSCAASGLIFSPYAMGWYRQAPGKEREFVAAITSRGGTYYADSVKGRFTISRDNAKNTVYLQMNSLKPEDTAVYYCAAKSLYSKRQQYEYWGQGTQVTVSS | low polyreactivity
11 | QVQLVESGGGLVQAGGSLRLSCAASGSIFDYYAMGWDRQAPGKERELVAAISWSGGSTYYADSVKGRFTISRDNAKNTVYLHMNSLNPEDTAVYYCAADEYDYYHSRWYEYWGQGTQVTVSS | high polyreactivity
12 | QVQLVESGGGLVQAGGSLRLSCAASGRTLASNAMGWYRQAPGKERELVAAINRGGSTYYADSVKGRFTISRDNAKNTVYLQMNSLKPEDTAVYYCRFYSYWSWLGREYDYWGQGTQVTVSS | low polyreactivity
13 | QVQLEESGGRLVQAGGSLRLSCAASGRTFYVYALGWYRQAPGKEREFVAAISGSGGSTFYADSVKGRFTISRDNPKNTVYLQMNSLKPEDTAVYYCATGGSYLYYLKFGHLSAFDYWGQGTQVTVSS | low polyreactivity
14 | QVQLVESGGGIVQAGGSLRLSCAASGYIFDHYAMGWYRQAPGKERELVAAISRSAGSTYYADSVKGRFTISRDNAKNTVYLQMKSLKPEDTAVYYCNAVVAVRSWRKYEYWGQGTQVTVSS | high polyreactivity
15 | QVQLVESGGGLVQAGGSLRLSCAASGSTFDYYAMGWYRQAPVKERELVAAITGTGGSTYYADSVKGRFTISRDNAKNTVYLQINRLKPEDTAVYYCAADTYLGWSYYWGQGTQVTVSS | high polyreactivity
16 | QVQLVESGGGLVQAGGSLRLSCAASGRIFYSNAMGWYRQAPGKERELVAAIRWSGGRTYYADSVNGRFTISRDNAKNSVYLQMNSLKPEDTAGYYCNARGYSGVSGKYGYWGQGTQVTVSS | high polyreactivity

Row | Sequence | polyreactivity (PSR sort gate)
17 | QVQLVESGGGLVQAGGSLRLSCAASGIIFKDYAMGWYRQAPGKERELVAAISRGGSTYYADSVKGRFTISRDNAKNTVYLQMNSLKPEDTAVYYCAAAYTAPYYRFGYWGQGTQVTVSS | high polyreactivity
18 | QVQLVESGGGLVQAGGSLRLSCAASGSTFVRNAMGWYRQAPGKERELVARISSSGGRTSYADSVKGRFTISRDNAKNTVYLQMNSLKPEDTAVYYCNARHYYIWWRSPTRTAMNYWGQGTQVTVSS | high polyreactivity
19 | QVQLVESGGGLVQAGGSLRLSCAASGSTFRGYAMGWYRQAPGKEREFVAAISRRGGTTYYADSVKGRFTISRDNAKNTVYLQMNSLKPEDTAVYYCNKVYYQHYLAFDYWGQGTQVTVSS | high polyreactivity
20 | QVQLVESGGGLVQAGGSLRLSCAASGITFGHYTMGWYRQAPGKERELVAAISWSGGSTYYADSVKGRFTISRDNAKNTVYLQMNSLKPEDTAVYYCNRVKPVIASYDSDYWGQGTQVTVSS | low polyreactivity
21 | QVQLVESGGGLVQAGGSLRLSCAASGRIFGIYAMGWYRQAPGKERELVADIDVSDGSTYYADSVKGRFTISRDNAKNTVYLQMNSLKPEDTAVYYCNAEDSSRWYDWYLHDYWGQGTQVTVSS | high polyreactivity
22 | LVQLVESGGGLVQAGGSLRLSCAASGNTFVSNAMGWYRQAPGKERELVAAIDSGGSTNYADSVKGRFTISRDNAKNTVYLQMNSLKPDDTAVYYCTRTSVYYYYWGQGTQVTVSS | low polyreactivity
23 | QVQLVESGGGLVQARGSLRLSCAACGSTFYWYPLGWSRQAPGTERELVATLTSVGRTNYADSVKGRFTISRDNAKNSVYLQMNRLNPEDTAVYYCAASKARWPRGGSRGGMGYWGQGTQVTVSS | high polyreactivity
24 | QVQLVESGGGLVQAGGSLRLSCAASGSTFNSYAMGWNRQAPGKERELVDRILWSGSTYYADSVKGRFTISRDNAKNTVYLQMNSLKPEDTAVYYFAAKRGYHIGDYWGQCTQVTVSS | high polyreactivity
25 | QVQLVESGGGLVQAGGSLRLSCAASGSIFTVNAMGWYRQAPGKEMEFVAAITGGGTSTYYADSVKGRFTISRDNAKNTVYLQMNSLTPEVTAVYYCAATTYHYSPTYGYWGQGTQVTVSS | low polyreactivity
26 | QVHLVESGGGLVQAGGSLRLSCAASGLIFFKYAMGWYRQETGKESELVAANSSSGGRTSYADSVKGRFTISRDNAKNTVYLQMNSEKPEDTAVYYCNVKPSASYIRYNYRYYYWGQGTHVTVSS | high polyreactivity
27 | QVQLVESVGGLVQAGGSLRLSCAASGSTFVPYAMGWYRQAPGKERELVAAITTSGGNTYYADSVKGRFTISRDNAKNTVYLQMNSLKPEDTAVYYCAADTYRSFDYWGQGTQVTVSS | low polyreactivity
28 | QVQLEESGGGLVQAGGSLRLSCAASGFTFRAYAMGWYRQAPGKERELVAANTYSGDRTYYADSVKGRFTITRDNAKKTVYLQMNSLKPEDTAVYYCAAYGAKVNRPGYYYWGQGTQVTVSS | high polyreactivity
29 | QVQLVESGGGLVQAGGSLRLSCAASGSIIGFYAMGWYRQAPGKERELVARISKRGGITYYADSVKGRFTISRDNAKNTVDLQMNSLKPEDTAVYYCAVDRRVLWYHMDYWGQGTQVTLSS | high polyreactivity
30 | QVQLVESGGGLVQAGGSLRLSCAASGLIFGWNAMGGYRQAPGKERELVAAINSGGITNYADSVKGRFTISRDNAKNTVYLQMYSLKPDDTEVYYCAADVVQYGLDWYGEEYESWGQGTQVTVSS | low polyreactivity
31 | QVKLVESGGGLVQAGGSLRLSCAASGFILGYYAMGWYRQAPGKERELVASISRRGGSTYYADSVKGRFTISRDNAKNTVYLQMNSLKPEDTAVYYCAASGYGRYPPYEYWGQGTQVTVSS | high polyreactivity
32 | QVQLVESGAGLVQAGGSLRLICAASGLTFIYYAMGWYRQAPGKERELVAAISVSGGSTYYADSVKGRFTISRDNAKNTVYLQMNRLQREDTAVYYCAADWLVHKPRYQYSFDFWGQVTQVTVSS | low polyreactivity
